The binders below were run against T1, oxMIF (recombinant human MIF immobilized into ELISA plates, transforming MIF to oxMIF) (human, UniProt P14174 2-115) (assay: ELISA on immobilized MIF (oxMIF), 4-parameter fit).
T1 construct: Oxidised conformational isoform produced by coating the plate at 1 ug/ml in PBS overnight; also called immobilized MIF (oxMIF); immobilized oxMIF
Protocol: (§1) Recombinant human MIF diluted in PBS at 1 μg/ml was immobilized into ELISA plates overnight at 4° C. (transforming MIF to oxMIF according to Thiele et al., 2015). After blocking, serial dilutions of anti-oxMIF antibodies were added to the plates. Finally, bound antibodies were detected using a Goat anti-human IgG (Fc)-HRP conjugate and tetramethylbenzidine (TMB) as substrate. The chromogenic reaction was stopped with 3M H₂SO₄ and OD was measured at 450 nm. Data from different experiments were normalized to the maximal OD of the anti-oxMIF antibody C0008 (=100%) of the respective experiment and EC₅₀ values were determined by 4-parameter fit using GraphPad Prism (and the mean+/−SEM of two experiments is shown).
Materials and Methods: Recombinant human MIF diluted in PBS at 1 μg/ml was immobilized into ELISA plates overnight at 4° C. (transforming MIF to oxMIF according to Thiele et al., 2015). After blocking, serial dilutions of antibodies were added to the plates, and ELISA was performed as described in the Example 3.

T1 sequence (P14174 2-115 limits assumed): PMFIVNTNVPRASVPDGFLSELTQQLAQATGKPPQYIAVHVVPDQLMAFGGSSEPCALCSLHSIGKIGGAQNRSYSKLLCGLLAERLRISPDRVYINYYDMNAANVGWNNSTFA

Binder | EC50 [nM]
C0008 (control/reference anti-oxMIF antibody) (antibody, human IgG1, kappa, V domains shown, Human IgG1 with wt Fc; also called control antibody) VH: EVQLLESGGGLVQPGGSLRLSCAASGFTFSIYSMNWVRQAPGKGLEWVSSIGSSGGTTYYADSVKGRFTISRDNSKNTLYLQMNSLRAEDTAVYYCAGSQWLYGMDVWGQGTTVTVSS VL: DIQMTQSPSSLSASVGDRVTITCRSSQRIMTYLNWYQQKPGKAPKLLIFVASHSQSGVPSRFRGSGSETDFTLTISGLQPEDSATYYCQQSFWTPLTFGGGTKVEIKR | 0.158
C0132 (Fc silenced anti-oxMIF x anti-HSG bispecific antibody, Fab/scFv-Fc) (bispecific antibody, human IgG1, kappa, L234A L235A, One anti-oxMIF arm only; also called bsMab C0132) heavy: not shown EVQLVESGGDLVKPGGSLKLSCAASGFTFSIYTMSWLRQTPGKGLEWVATLSGDGDDIYYPDSVKGRFTISRDNAKNSLYLQMNSLRAEDTALYYCARVRLGDWDFDVWGQGTTVSVSSGGSGGSGGSGGSGGSDIVMTQSPSSLAVSPGERVTLTCKSSQSLFNSRTRKNYLGWYQQKPGQSPKLLIYWASTRESGVPDRFSGSGSGTDFTLTINSLQAEDVAVYYCTQVYYLCTFGAGTKLELKGGGGSDKTHTCPPCPAPEAAGGPSVFLFPPKPKDTLMISRTPEVTCVVVDVSHEDPEVKFNWYVDGVEVHNAKTKPREEQYNSTYRVVSVLTVLHQDWLNGKEYKCKVSNKALPAPIEKTISKAKGQPREPQVCTLPPSRDELTKNQVSLSCAVKGFYPSDIAVEWESNGQPENNYKTTPPVLDSDGSFFLVSKLTVDKSRWQQGNVFSCSVMHEALHNHYTQKSLSLSPG light: DIQMTQSPSSLSASVGDRVTITCRSSQRIMTYLNWYQQKPGKAPKLLIYVGSHSQSGVPSRFRGSGSETDFTLTISGLQPEDSATYYCQQSFFTPLTFGGGTKVEIKRTVAAPSVFIFPPSDEQLKSGTASVVCLLNNFYPREAKVQWKVDNALQSGNSQESVTEQDSKDSTYSLSSTLTLSKADYEKHKVYACEVTHQGLSSPVTKSFNRGEC | 2.51
C0133 (Fc silenced anti-oxMIF x anti-HSG bispecific antibody, Fab/Fab-scFv-Fc) (bispecific antibody, human IgG1, kappa, L234A L235A, also called bsMab C0133) heavy: not shown EVQLQESGGGLVQPGGSLRLSCAASGFTFSIYSMNWVRQAPGKGLEWVSSIGSSGGTTYYADSVKGRFTISRDNSKNTLYLQMNSLRAEDTAVYYCAGSQYLYGMDVWGQGTTVTVSSASTKGPSVFPLAPSSKSTSGGTAALGCLVKDYFPEPVTVSWNSGALTSGVHTFPAVLQSSGLYSLSSVVTVPSSSLGTQTYICNVNHKPSNTKVDKKVEPKSCGGGGSGGGGSEVQLVESGGDLVKPGGSLKLSCAASGFTFSIYTMSWLRQTPGKGLEWVATLSGDGDDIYYPDSVKGRFTISRDNAKNSLYLQMNSLRAEDTALYYCARVRLGDWDFDVWGQGTTVSVSSGGSGGSGGSGGSGGSDIVMTQSPSSLAVSPGERVTLTCKSSQSLFNSRTRKNYLGWYQQKPGQSPKLLIYWASTRESGVPDRFSGSGSGTDFTLTINSLQAEDVAVYYCTQVYYLCTFGAGTKLELKGGGGSGGGGSKTHTCPPCPAPEAAGGPSVFLFPPKPKDTLMISRTPEVTCVVVDVSHEDPEVKFNWYVDGVEVHNAKTKPREEQYNSTYRVVSVLTVLHQDWLNGKEYKCKVSNKALPAPIEKTISKAKGQPREPQVCTLPPSRDELTKNQVSLSCAVKGFYPSDIAVEWESNGQPENNYKTTPPVLDSDGSFFLVSKLTVDKSRWQQGNVFSCSVMHEALHNHYTQKSLSLSPG light: DIQMTQSPSSLSASVGDRVTITCRSSQRIMTYLNWYQQKPGKAPKLLIYVGSHSQSGVPSRFRGSGSETDFTLTISGLQPEDSATYYCQQSFFTPLTFGGGTKVEIKRTVAAPSVFIFPPSDEQLKSGTASVVCLLNNFYPREAKVQWKVDNALQSGNSQESVTEQDSKDSTYSLSSTLTLSKADYEKHKVYACEVTHQGLSSPVTKSFNRGEC | 0.242

Each binder was assayed against T1, oxMIF (recombinant human MIF …) (assay: ELISA on immobilized MIF (oxMIF); EC50 of 4-parameter fit given as apparent KD).
Protocol: as §1
Anti-oxMIF antibodies were detected by an anti-human-IgG (Fc)-HRP conjugate, C0008 was used as reference antibody. EC₅₀ values were determined by sigmoidal, 4-parameter equation using GraphPad Prism (mean+/−SEM of two experiments is shown)

Binder | Kd [nM]
C0008 (control/reference anti-oxMIF antibody) (antibody, human IgG1, kappa, V domains shown, Human IgG1 with wt Fc; also called control antibody) VH: EVQLLESGGGLVQPGGSLRLSCAASGFTFSIYSMNWVRQAPGKGLEWVSSIGSSGGTTYYADSVKGRFTISRDNSKNTLYLQMNSLRAEDTAVYYCAGSQWLYGMDVWGQGTTVTVSS VL: DIQMTQSPSSLSASVGDRVTITCRSSQRIMTYLNWYQQKPGKAPKLLIFVASHSQSGVPSRFRGSGSETDFTLTISGLQPEDSATYYCQQSFWTPLTFGGGTKVEIKR | 0.19
C0115 (Fc silenced anti-oxMIF antibody) (antibody, human IgG1, kappa, L234A L235A, V domains shown) VH: EVQLQESGGGLVQPGGSLRLSCAASGFTFSIYSMNWVRQAPGKGLEWVSSIGSSGGTTYYADSVKGRFTISRDNSKNTLYLQMNSLRAEDTAVYYCAGSQYLYGMDVWGQGTTVTVSS VL: DIQMTQSPSSLSASVGDRVTITCRSSQRIMTYLNWYQQKPGKAPKLLIYVGSHSQSGVPSRFRGSGSETDFTLTISGLQPEDSATYYCQQSFFTPLTFGGGTKVEIKR | 0.28
C0118 (Fc silenced anti-oxMIF antibody) (antibody, human IgG1, kappa, L234A L235A, V domains shown) VH: EVQLQESGGGLVQPGGSLRLSCAASGFTFSIYSMNWVRQAPGKGLEWVSSIGSSGGTTYYADSVKGRFTISRDNSKNTLYLQMNSLRAEDTAVYYCAGSQYLYGMDVWGQGTTVTVSS VL: DIQMTQSPSSLSASVGDRVTITCRSSQRILTYLNWYQQKPGKAPKLLIYVGSHSQSGVPSRFRGSGSETDFTLTISGLQSEDSATYYCQQSFFTPLTFGGGTKVEIKR | 0.26

Source: patent US20250129148A1 (ONCOONE RESEARCH AND DEVELOPMENT, published 2025)
